Molecular target: Human AP endonuclease 1 (human, UniProt P27695 1-318)
Test: pull-down

Sequence of Human AP endonuclease 1 (P27695 whole entry): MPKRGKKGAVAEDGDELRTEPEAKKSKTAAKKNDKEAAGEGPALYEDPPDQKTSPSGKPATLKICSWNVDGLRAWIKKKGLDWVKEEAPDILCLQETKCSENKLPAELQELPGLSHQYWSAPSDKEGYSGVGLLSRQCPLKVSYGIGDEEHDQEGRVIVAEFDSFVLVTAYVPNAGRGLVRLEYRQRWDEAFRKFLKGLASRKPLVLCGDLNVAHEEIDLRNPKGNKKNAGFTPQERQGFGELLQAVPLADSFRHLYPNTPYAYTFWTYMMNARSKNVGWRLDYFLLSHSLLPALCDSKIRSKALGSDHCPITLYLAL

Row | binding result | Binder
1 | binds | his-Rad1 (individual subunit) (natural protein, human, UniProt O60671 1-282, looked up) MPLLTQQIQDEDDQYSLVASLDNVRNLSTILKAIHFREHATCFATKNGIKVTVENAKCVQANAFIQAGIFQEFKVQEESVTFRINLTVLLDCLSIFGSSPMPGTLTALRMCYQGYGYPLMLFLEEGGVVTVCKINTQEPEETLDFDFCSTNVINKIILQSEGLREAFSELDMTSEVLQITMSPDKPYFRLSTFGNAGSSHLDYPKDSDLMEAFHCNQTQVNRYKISLLKPSTKALVLSCKVSIRTDNRGFLSLQYMIRNEDGQICFVEYYCCPDEEVPESES
2 | binds | his-Hus1 (individual subunit) (natural protein, human, UniProt O60921 1-280, looked up) MKFRAKIVDGACLNHFTRISNMIAKLAKTCTLRISPDKLNFILCDKLANGGVSMWCELEQENFFNEFQMEGVSAENNEIYLELTSENLSRALKTAQNARALKIKLTNKHFPCLTVSVELLSMSSSSRIVTHDIPIKVIPRKLWKDLQEPVVPDPDVSIYLPVLKTMKSVVEKMKNISNHLVIEANLDGELNLKIETELVCVTTHFKDLGNPPLASESTHEDRNVEHMAEVHIDIRKLLQFLAGQQVNPTKALCNIVNNKMVHFDLLHEDVSLQYFIPALS

Reference: paper PMC1885638 (Nucleic Acids Research, 2007)
